{"source": "paper PMC5730197", "about": "“Evolution-guided adaptation of an adenylation domain substrate specificity to an unusual amino acid” (PLoS ONE, 2017)", "proteins": {"B1": {"name": "LmbC (Streptomyces lincolnensis) (protein)", "chain": "MSSSVRLSTLLASAAEARPEAPAVLGETRLPVTYGELAARAGGIQAALAGLGVRAGDRVALLSGRTDADAVAAVHAILAAGAVYVPLDAASPPARWASVSRVCAPTAVVGERALLDRFAAAVPGPRRLALPSDGDELPAGRLDPVRSDGTDVAYLLTTSGSTGVPKCVAHTGAGAVAFLEWMVGAFPVGGDDVFACHAPLHFDVSVASVLGSALGGAALAPVPRELSGFPVELATWIAERAVTVWLSVPYPLARLSGLEERAARERLATLRTVVFAGDVFPHQRLAALMRCAPGARFLNIYGPTETNGCTYEVVDAPPAGPVPIGRPVECAECWVEDDDGRPVDAVGSVGELVVAGPTVAAGYWGVEGHGAERFRTGETCPGGRAYATGDQVRVLPGGRYAFLGRMDNMIKMRGQRFELEEVENAVRLAPGVEDCCVVKVDVRDDHSRLLAVVVGPGAGDPRTLREHCLTRLPSWAVPHRFLTAAALPLGSTGKVDRRALREELVTRGE", "notes": "full-length stand-alone A-domain, C-terminal His8 tag kept, pET42b (plmbC1), E. coli BL21(DE3)"}}, "test_in_all_cases": "purified protein", "assay_type_in_all_cases": "biochemical, Streptomyces lincolnensis", "settings_in_all_cases": "amino acid-dependent exchange of 32P from PPi into ATP", "key": {"[1]": {"substrate": "CCCCC[C@H]1CN[C@H](C(=O)O)C1"}, "[2]": {"substrate": "CCCC[C@H]1CN[C@H](C(=O)O)C1"}, "[3]": {"substrate": "CCC[C@H]1CN[C@H](C(=O)O)C1"}, "[4]": {"substrate": "CC[C@H]1CN[C@H](C(=O)O)C1"}}, "data": [{"protein": "B1", "values": [{"measurement": "Km", "setting": "[1]", "value": "60 ± 3", "unit": "µM"}, {"measurement": "kcat", "setting": "[1]", "value": "0.917 ± 0.0133", "unit": "s⁻¹"}, {"measurement": "kcat/Km", "setting": "[1]", "value": 15300, "unit": "M⁻¹ s⁻¹"}, {"measurement": "Km", "setting": "[2]", "value": "120 ± 6", "unit": "µM"}, {"measurement": "Km", "setting": "[3]", "value": "280 ± 30", "unit": "µM"}, {"measurement": "kcat", "setting": "[3]", "value": "0.55 ± 0.0167", "unit": "s⁻¹"}, {"measurement": "kcat/Km", "setting": "[3]", "value": 2000, "unit": "M⁻¹ s⁻¹"}, {"measurement": "Km", "setting": "[4]", "value": "6400 ± 300", "unit": "µM"}]}]}
